Experimental data taken from patent publication US20220119541A1 (PHARMAEXPLORER, published 2022).
Positions count from the first letter of the chain named.

T1: human GITR (full length, on cells) (human, UniProt Q9Y5U5 26-241)
T1 sequence (looked up): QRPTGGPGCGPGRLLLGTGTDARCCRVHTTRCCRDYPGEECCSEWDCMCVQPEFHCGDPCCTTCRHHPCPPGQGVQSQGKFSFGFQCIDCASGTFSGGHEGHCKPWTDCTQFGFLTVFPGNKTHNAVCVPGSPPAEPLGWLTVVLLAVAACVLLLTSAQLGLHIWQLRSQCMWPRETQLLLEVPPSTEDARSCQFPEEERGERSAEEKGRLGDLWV

T2: hGITR-ECD-hFc (human, UniProt Q9Y5U5 26-161)
T2 construct: ECD put first; also called immunogen A; human GITR extracellular domain protein with hFc tag; not shown: human IgG Fc fragment (hFc) of the pCpC vector
T2 chain: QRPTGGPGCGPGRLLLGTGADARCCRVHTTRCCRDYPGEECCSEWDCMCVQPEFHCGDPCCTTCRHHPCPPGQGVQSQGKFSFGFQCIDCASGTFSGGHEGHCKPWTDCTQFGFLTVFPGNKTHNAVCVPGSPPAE

B1: 3503-mAb019 (antibody, V domains shown)
VH: QVQLVESGGGVVQPGRSLRLSCAASGFTFSSYGMHWVRQAPGKGLEWVAVIWYAGSRKFYADSVEGRFTISRDNSKNTLYLQMSSVRPEDTAVYYCARGGSLDGGFFYYGMDVWGQGTTVTVSS
VL: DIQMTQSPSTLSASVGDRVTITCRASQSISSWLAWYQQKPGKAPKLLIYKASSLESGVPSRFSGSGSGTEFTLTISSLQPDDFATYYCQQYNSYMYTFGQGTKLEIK
notes: Chimeric antibody purified from hybridoma supernatant of Harbour H2L2 mice: human variable regions with rat constant regions; also called 96A10H9; chimeric anti-GITR antibody
B2: 3503-mAb070 (antibody, V domains shown)
VH: QVQLVESGGGVVQPGRSLRLSCAASGFTFSSYGMHWVRQAPGKGLEWVAVIWYETSNKFYVDSVKGRFTISRDNSKNTLYLQMNSLRAEDTAVYYCARYGASSGWYWYFDLWGRGTLVTVSS
VL: DIQLTQSPSFLSASVGDRVTITCRASQGISSFLAWYQQKPGKAPKLLIYAASTLQSGVPSRFSGSGSGTEFTLTISSLQPEDFATYCCQQLNSYPFTFGQGTKLEIK
notes: Chimeric antibody purified from hybridoma supernatant of Harbour H2L2 mice: human variable regions with rat constant regions; also called 272G5E1; chimeric anti-GITR antibody
B3: 3503-mAb076 (antibody, V domains shown)
VH: B2 VH with F59Y, V61A
VL: B2 VL with F32Y
notes: Chimeric antibody purified from hybridoma supernatant of Harbour H2L2 mice: human variable regions with rat constant regions; also called 277C12G4; chimeric anti-GITR antibody
B4: 3503-mAb064 (antibody, V domains shown)
VH: B2 VH with F59Y, V61A, S85N, A101G, S102N
VL: B2 VL with K42T
notes: Chimeric antibody purified from hybridoma supernatant of Harbour H2L2 mice: human variable regions with rat constant regions; also called 265G9A11; chimeric anti-GITR antibody
B5: 3503-hab019 (antibody, V domains shown)
VH: B1 VH
VL: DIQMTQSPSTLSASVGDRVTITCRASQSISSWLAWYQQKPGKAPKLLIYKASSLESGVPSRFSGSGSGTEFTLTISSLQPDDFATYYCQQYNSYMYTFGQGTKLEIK
notes: also called 96A10H9; fully human anti-GITR antibody
B6: 3503-hab070 (antibody, V domains shown)
VH: B2 VH
VL: B2 VL
notes: also called 272G5E1; fully human anti-GITR antibody
B7: 3503-hab064 (antibody, V domains shown)
VH: B2 VH with F59Y, V61A, S85N, A101G, S102N
VL: B2 VL with K42T
notes: also called 265G9A11; fully human anti-GITR antibody
B8: 3503-hab076 (antibody, V domains shown)
VH: B2 VH with F59Y, V61A
VL: B2 VL with F32Y
notes: also called 277C12G4; fully human anti-GITR antibody
B9: 3503-hab019e2 (antibody, V domains shown)
VH: B1 VH with S84N, V86L, P88A, D103E
VL: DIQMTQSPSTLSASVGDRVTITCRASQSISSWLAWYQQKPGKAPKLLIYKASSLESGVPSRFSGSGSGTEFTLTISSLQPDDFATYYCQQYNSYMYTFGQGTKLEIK
notes: also called 96A10H9; engineered fully human anti-GITR antibody
B10: 3503-hab070e1 (antibody, V domains shown)
VH: B2 VH
VL: B2 VL with C87Y
notes: also called 272G5E1; engineered fully human anti-GITR antibody

The binders below were run against T1, human GITR (full length, on cells) (assay: cell-based or functional assay).

Activation of NF-κB activity, EC50 (nM), Coupling (Crosslinking) [nM] | Activation of NF-κB activity, EC50 (nM), Non-coupling (Non-Crosslinking) [nM] | Binder
12.5 |  | B1
> 0.09 | 0.062 | B2
> 0.27 | > 0.09 | B3
0.101 | > 0.2 | B4

Target: T1, human GITR (full length, on cells)
Assay: cell-based or functional assay
Remark: another data set of the same source

Activation of NF-κB activity, EC50 (nM), Coupling [nM] | Activation of NF-κB activity, EC50 (nM), Non-coupling [nM] | Binder
4.42 | 0.281 | B5
2.55 | 0.276 | B6
2.8 | 0.177 | B7
1.33 | 0.127 | B8

Target: T1, human GITR (full length, on cells)
Assay: cell-based or functional assay
Remark: another data set of the same source

Activation of NF-κB activity, EC50 (nM), Coupling [nM] | Activation of NF-κB activity, EC50 (nM), Non-coupling [nM] | Binder
10.9 | 0.166 | B5
1.74 | 0.139 | B9
5.78 | 0.0959 | B6
4.08 | 0.0957 | B10

The binders below were run against T1, human GITR (full length, on cells) (assay: flow cytometry (FACS) on 293F-hGITR cells, MFI curve fit).
Procedure: (§1) The pIRES plasmid with the monkey-derived GITR full-length gene was transfected into the HEK293 cell line to construct a HEK293 stable cell line containing monkey GITR (herein referred to as HEK293-cGITR stable cell line), wherein the database accession number of the monkey GITR nucleotide sequence is XP_005545180.1. The tool antibody Tab9H6v3 was constructed with reference to the patent (US_2015_0064204_A1). […] The medium was aspirated, and the cells were incubated with chimeric anti-GITR antibody or IgG1 isotype control antibody in PBS+2% FBS for 1 hour so that the antibody binds to the GITR protein expressed on the cell surface. Cells were collected and washed, and then incubated with anti-human antibody conjugated with fluorescent dye at 4° C. for 1 hour. Mean fluorescence intensity (MFI) of chimeric anti-GITR antibodies bound to cells expressing hGITR or cGITR was determined by flow cytometry. The EC50 of the fitting curve was calculated by GraphPad Prism software. The antibody to be tested can bind to human or monkey GITR protein on the cell surface. The data in the table is the average fluorescence intensity values of the cell populations measured by MFI.

EC50 [pM] | Binder
70 | B1
222 | B5
155 | B9
141 | B6
358 | B2
152 | B3
169 | B10
385 | B4

These binders were tested against T3, monkey GITR (full length, on cells) (monkey) (assay: flow cytometry (FACS) on 293F-cGITR cells, MFI curve fit).
T3 construct: whole, on cells; also called cGITR
Procedure: as §1

EC50 [pM] | Binder
530 | B5
301 | B6
254 | B7
580 | B8

Target: T1, human GITR (full length, on cells)
Assay: flow cytometry (FACS) on 293F-hGITR cells, MFI curve fit
Remark: another data set of the same source
Procedure: as §1

EC50 [pM] | Binder
250 | B5
203 | B6
194 | B7
173 | B8

Target: T3, monkey GITR (full length, on cells)
Assay: flow cytometry (FACS) on 293F-cGITR cells, MFI curve fit
Remark: another data set of the same source
Procedure: as §1

EC50 [pM] | Binder
10 | B1
418 | B5
310 | B9
258 | B6
198 | B2
226 | B3
264 | B10
404 | B4

These binders were tested against T4, cGITR-ECD-hFc (rhesus; human, UniProt F7DDV8 14-149) (assay: ELISA, cGITR-ECD-hFc coated on plate, HRP anti-human Fab detection).
T4 sequence (F7DDV8 entry or part of it): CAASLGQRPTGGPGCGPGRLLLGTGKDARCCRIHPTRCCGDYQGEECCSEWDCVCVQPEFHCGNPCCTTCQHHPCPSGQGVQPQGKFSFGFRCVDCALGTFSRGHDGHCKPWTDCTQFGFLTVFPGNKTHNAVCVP

EC50 [pM] | Binder
71.7 | B5
52.9 | B6
36.9 | B7
55.1 | B8

Target: T2, hGITR-ECD-hFc
Assay: ELISA, hGITR-ECD-hFc coated on plate, HRP anti-human Fab detection
Procedure: (§2) HGITR-ECD-hFc protein and cGITR-ECD-hFc protein were diluted to 1 μg/ml with PBS hydrochloric acid buffer (pH 7.2), and 100 μl dilution was added to 96-well ELISA microplate, and incubated at 4° C. overnight. The microplate was washed three times with 300 μl/well wash buffer PBST (PBS+0.05% Tween-20), 300 μl blocking buffer (PBST+1% BSA) was added to each well, and incubated at room temperature for 2 hours. The plate was washed three times, 100 μl, 10 μg/ml anti-GITR antibody was added to each well, and was incubated at 37° C. for 1 hour. The plate was washed three times, 100 μl horseradish peroxidase (HRP) labeled anti-human Fab secondary antibody was added to each well, and was incubated at 37° C. for half an hour. The plate was washed three times, 100 μl tetramethylbenzidine (TMB) was added to each well. After 15 minutes of color development, 50 μl 1N HCl termination solution was added to each well, and the OD450 value was read with a plate reader. The EC50 of the binding curve was calculated by GraphPad Prism software.

EC50 [pM] | Binder
79.1 | B5
54.4 | B6
44.3 | B7
59.3 | B8

Target: T4, cGITR-ECD-hFc
Assay: ELISA, cGITR-ECD-hFc coated on plate, HRP anti-human Fab detection
Remark: another data set of the same source

EC50 [pM] | Binder
115 | B5
96 | B9
63 | B6
62 | B10

Target: T2, hGITR-ECD-hFc
Assay: ELISA, hGITR-ECD-hFc coated on plate, HRP anti-human Fab detection
Remark: another data set of the same source
Procedure: as §2
The binding activity of the engineered fully human anti-GITR antibody to the hGITR-ECD-hFc protein or the cGITR-ECD-hFc protein was detected by an enzyme-linked immunosorbent assay iaccording to the step (1) of Example 5.

EC50 [pM] | Binder
110 | B5
89 | B9
78 | B6
74 | B10

Target: T2, hGITR-ECD-hFc
Assay: SPR (Biacore), hGITR-ECD-hFc immobilised on CM5 chip, antibody as analyte
Procedure: (§3) The antigen hGITR-ECD-hFc was immobilized on the chip surface in manual mode using the running buffer HBS-EP+(10 mM HEPES, 150 mM NaCl, 3 mM EDTA, 0.05% P20, pH 7.4). First, a fresh mixture of 50 mM NHS and 200 mM EDC was used to activate the flow cell 4 of the tandem S CM5 sensor chip. The antigen was then diluted to 1 μg/ml with 10 mM NaAC (pH 5.0) and was injected into flow cell 4 for approximately 40 seconds. Finally, 1 M ethanolamine was used to block the remaining active coupling sites.
Binding kinetics and affinity of the engineered fully human anti-GITR antibody to the antigen hGITR-ECD-hFc protein were tested by Biacore according to step (5) of Example 5, and the results are shown in Table 17.

Kd [pM] | koff [s⁻¹] | kon [M⁻¹ s⁻¹] | Binder
384 | 0.00023 | 600000 | B9
537 | 0.000381 | 710000 | B10

Target: T2, hGITR-ECD-hFc
Assay: SPR (Biacore T200), hGITR-ECD-hFc immobilised on CM5 chip, antibody as analyte
Procedure: as §3
Buffer flow was maintained for 600 seconds to determine dissociation. To remove the test antibody from the surface, 10 mM Glycine-HCl (pH 1.5) was injected into flow cells 1 and 4 at a flow rate of 10 μ L/min for 30 seconds. The above steps were repeated for each concentration of continuously diluted antibodies.
The KD value of each antibody was evaluated using Biacore T200 evaluation software 3.0, where flow cell 1 was used as a reference flow cell.

Kd [pM] | koff [s⁻¹] | kon [M⁻¹ s⁻¹] | Binder
401 | 0.000205 | 512000 | B5
251 | 0.000185 | 737000 | B6
592 | 0.000315 | 532000 | B7
1030 | 0.000684 | 664000 | B8
